This experiment has as its target DR1-restricted TCR HA1.7. The experiment is described as follows: flow cytometry: HA1.7-transduced primary CD4+ T cells stained with PE wild-type DR1 dextramer and anti-CD4.

On to “wild-type DR1 dextramer specific to Flu-HA306-318 (peptide-MHC)”, for which the percent of cells in the dextramer+ CD4+ quadrant amounted to 30.4%.

The values above are taken from patent US20220281949A1.
